B1: GST-OGA (residues 371-440) (domain or fragment, human, UniProt O60502 371-440, looked up)
chain: DVLYSPQMALKLALTEWLQEFGVPHQYSSRQVAHSGAKASVVDGTPLVAAPSLNATTVVTTVYQEPIMSQ
notes: human OGA, residues 371-440, UniProt O60502, cloned into pGEX-6P-1; also called GST-OGA fragment; source: E. coli BL21 (DE3), purified (Glutathione Sepharose 4B, Resource Q, Superose 6)
B2: full-length human OGT (O-GlcNAc transferase), C-terminal His6 (enzyme, UniProt O15294 1-1046, looked up)
chain: MASSVGNVADSTEPTKRMLSFQGLAELAHREYQAGDFEAAERHCMQLWRQEPDNTGVLLLLSSIHFQCRRLDRSAHFSTLAIKQNPLLAEAYSNLGNVYKERGQLQEAIEHYRHALRLKPDFIDGYINLAAALVAAGDMEGAVQAYVSALQYNPDLYCVRSDLGNLLKALGRLEEAKACYLKAIETQPNFAVAWSNLGCVFNAQGEIWLAIHHFEKAVTLDPNFLDAYINLGNVLKEARIFDRAVAAYLRALSLSPNHAVVHGNLACVYYEQGLIDLAIDTYRRAIELQPHFPDAYCNLANALKEKGSVAEAEDCYNTALRLCPTHADSLNNLANIKREQGNIEEAVRLYRKALEVFPEFAAAHSNLASVLQQQGKLQEALMHYKEAIRISPTFADAYSNMGNTLKEMQDVQGALQCYTRAIQINPAFADAHSNLASIHKDSGNIPEAIASYRTALKLKPDFPDAYCNLAHCLQIVCDWTDYDERMKKLVSIVADQLEKNRLPSVHPHHSMLYPLSHGFRKAIAERHGNLCLDKINVLHKPPYEHPKDLKLSDGRLRVGYVSSDFGNHPTSHLMQSIPGMHNPDKFEVFCYALSPDDGTNFRVKVMAEANHFIDLSQIPCNGKAADRIHQDGIHILVNMNGYTKGARNELFALRPAPIQAMWLGYPGTSGALFMDYIITDQETSPAEVAEQYSEKLAYMPHTFFIGDHANMFPHLKKKAVIDFKSNGHIYDNRIVLNGIDLKAFLDSLPDVKIVKMKCPDGGDNADSSNTALNMPVIPMNTIAEAVIEMINRGQIQITINGFSISNGLATTQINNKAATGEEVPRTIIVTTRSQYGLPEDAIVYCNFNQLYKIDPSTLQMWANILKRVPNSVLWLLRFPAVGEPNIQQYAQNMGLPQNRIIFSPVAPKEEHVRRGQLADVCLDTPLCNGHTTGMDVLWAGTPMVTMPGETLASRVAASQLTCLGCLELIAKNRQEYEDIAVKLGTDLEYLKKVRGKVWKQRISSPLFNTKQYTMELERLYLQMWEHYAAGNKPDHMIKPVEVTESA
notes: human O-GlcNAc transferase (OGT), full length, UniProt O15294; Scissor-shaped homodimer by cryo-EM; also called OGT WT; His6-tagged OGT; source: E. coli BL21 (DE3), purified (Ni-NTA, Resource Q, Superose 6); for the OGT-OGA complex co-expressed with OGA in BL21 (DE3); not shown: His6, C-terminal, kept

For data set [1] the following is noted: O-GlcNAc at S405.
Data set [2] concerns the target B2. Description: pull-down; GST pull-down: GST-OGA bait on Glutathione Sepharose 4B, His6-tagged OGT or mutants as prey; all proteins 1 mg/ml; 25 mM Tris pH 8.0, 150 mM NaCl, 2 mM DTT, 0.05% NP40; 2 h at 4 °C; SDS-PAGE with Coomassie staining. As to conditions: both partners purified.
Data set [3] deals with the molecule itself. Description: cryo-EM structure; single-particle cryo-EM of full-length human OGT alone, incubated with 1 mg/ml UDP-GlcNAc on ice; overall resolution 3.69 Å.

The text below walks through data of article PMC10618255, “Cryo-EM structure of human O-GlcNAcylation enzyme pair OGT-OGA complex” (Nature Communications, 2023).

Regarding “OGA (O-GlcNAcase): OGT H508A mutant bound to OGA”, the enzymatic_activity result in data set [1] is recorded as “no change”.
Regarding B1, the binding result in data set [2] is listed as “binds”.
In the case of B2, the stoichiometry N (commonly the number of molecules, sites or subunits per partner or assembly) in data set [3] was 2.
